Test [1] addresses SARS-CoV-1 RBD-5GS-1TD0 (SARS-CoV-1 | not stated). As to the kind of experiment: SDS-PAGE.
The target in test [2] is SARS-CoV-2 RBD-5GS-1TD0 (SARS-CoV-2 | not stated) (UniProt P0DTC2). Kind of test: SDS-PAGE.

One may read the stoichiometry N as the number of molecules, sites or subunits per partner or assembly. With “SARS-CoV-1 RBD-5GS-1TD0 (domain or fragment)”, the stoichiometry N in test [1] came out at 3. Substance “SARS-CoV-2 RBD-5GS-1TD0 (from UniProt P0DTC2 330-532) (domain or fragment)” had a stoichiometry N in test [2] of 3.

These data come from PMC7523099.
